One block for each binder: values may come before it.
Experiments:
Experiment in all cases: protein array
[1] = target: T1, growth factor receptor bound protein 2, transcript variant 1 (human, UniProt P62993 1-217)
T1 construct: on protein array; also called GRB2

[2] = target: T2, homeobox and leucine zipper encoding (human, UniProt Q8IX15 25-550)
T2 construct: on protein array; also called HOMEZ
T2 sequence: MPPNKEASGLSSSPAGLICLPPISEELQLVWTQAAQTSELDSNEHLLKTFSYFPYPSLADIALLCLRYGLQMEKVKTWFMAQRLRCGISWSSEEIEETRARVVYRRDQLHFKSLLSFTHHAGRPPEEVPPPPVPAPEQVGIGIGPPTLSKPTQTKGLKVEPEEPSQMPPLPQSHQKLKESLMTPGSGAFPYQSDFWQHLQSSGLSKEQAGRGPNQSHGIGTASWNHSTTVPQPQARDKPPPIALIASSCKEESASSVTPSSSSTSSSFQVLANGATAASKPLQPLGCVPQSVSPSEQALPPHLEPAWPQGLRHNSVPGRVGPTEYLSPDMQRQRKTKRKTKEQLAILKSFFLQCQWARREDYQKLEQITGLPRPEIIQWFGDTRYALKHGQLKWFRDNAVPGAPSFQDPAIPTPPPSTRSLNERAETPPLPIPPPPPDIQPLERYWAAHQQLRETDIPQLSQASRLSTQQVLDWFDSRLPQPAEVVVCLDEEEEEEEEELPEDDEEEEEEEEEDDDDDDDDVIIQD

[3] = target: T3, BAR/IMD domain containing adaptor protein 2, transcript variant 3 (human, UniProt Q9UQB8 1-511)
T3 construct: on protein array; also called BAIAP2
T3 sequence: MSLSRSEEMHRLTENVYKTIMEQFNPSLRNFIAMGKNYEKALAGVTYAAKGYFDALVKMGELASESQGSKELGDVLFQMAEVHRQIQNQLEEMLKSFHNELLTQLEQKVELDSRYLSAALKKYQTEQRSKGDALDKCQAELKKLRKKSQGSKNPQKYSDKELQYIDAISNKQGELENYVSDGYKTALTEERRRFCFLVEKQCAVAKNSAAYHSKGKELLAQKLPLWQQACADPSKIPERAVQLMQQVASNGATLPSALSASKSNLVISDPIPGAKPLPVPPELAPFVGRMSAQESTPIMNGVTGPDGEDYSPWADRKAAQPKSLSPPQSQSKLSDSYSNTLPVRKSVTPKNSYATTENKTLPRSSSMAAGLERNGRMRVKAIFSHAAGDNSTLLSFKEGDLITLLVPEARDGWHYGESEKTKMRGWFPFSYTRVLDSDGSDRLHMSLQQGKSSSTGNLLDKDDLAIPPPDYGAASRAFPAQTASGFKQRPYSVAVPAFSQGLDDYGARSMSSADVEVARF

[4] = target: T4, KH RNA binding domain containing, signal transduction associated 2, transcript variant 2 (human, UniProt Q5VWX1 1-349)
T4 construct: on protein array; also called KHDRBS2
T4 sequence: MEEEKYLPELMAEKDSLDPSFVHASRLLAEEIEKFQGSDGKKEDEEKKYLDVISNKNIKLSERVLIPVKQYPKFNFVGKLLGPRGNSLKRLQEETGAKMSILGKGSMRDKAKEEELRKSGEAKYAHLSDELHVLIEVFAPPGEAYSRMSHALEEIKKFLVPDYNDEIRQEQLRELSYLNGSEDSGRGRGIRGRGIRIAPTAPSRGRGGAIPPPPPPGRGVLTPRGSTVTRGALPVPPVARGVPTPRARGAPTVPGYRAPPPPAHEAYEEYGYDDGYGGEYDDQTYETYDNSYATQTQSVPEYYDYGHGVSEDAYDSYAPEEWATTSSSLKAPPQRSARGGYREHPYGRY

[5] = target: T5, sorting nexin 33, transcript variant 1 (human, UniProt Q8WV41 1-574)
T5 construct: on protein array; also called SNX33
T5 sequence: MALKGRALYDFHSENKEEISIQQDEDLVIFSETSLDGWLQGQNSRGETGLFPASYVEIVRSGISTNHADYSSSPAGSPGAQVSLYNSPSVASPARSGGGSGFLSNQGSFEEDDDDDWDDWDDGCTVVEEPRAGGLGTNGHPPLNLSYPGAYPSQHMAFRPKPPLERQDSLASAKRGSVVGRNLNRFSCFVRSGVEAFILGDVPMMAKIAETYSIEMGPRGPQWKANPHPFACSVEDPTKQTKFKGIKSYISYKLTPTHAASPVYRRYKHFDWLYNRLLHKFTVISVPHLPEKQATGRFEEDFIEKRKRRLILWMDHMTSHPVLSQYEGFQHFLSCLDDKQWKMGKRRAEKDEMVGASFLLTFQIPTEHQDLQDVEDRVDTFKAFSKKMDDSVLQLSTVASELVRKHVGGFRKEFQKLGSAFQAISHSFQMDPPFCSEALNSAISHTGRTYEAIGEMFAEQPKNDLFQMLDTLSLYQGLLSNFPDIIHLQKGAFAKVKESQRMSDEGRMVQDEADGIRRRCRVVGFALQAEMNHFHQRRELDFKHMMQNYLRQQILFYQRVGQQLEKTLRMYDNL

extended synaptotagmin 2 = target: T6, extended synaptotagmin 2 (human, UniProt A0FGR8 564-921)
T6 construct: on protein array; also called ESYT2_frag
T6 sequence: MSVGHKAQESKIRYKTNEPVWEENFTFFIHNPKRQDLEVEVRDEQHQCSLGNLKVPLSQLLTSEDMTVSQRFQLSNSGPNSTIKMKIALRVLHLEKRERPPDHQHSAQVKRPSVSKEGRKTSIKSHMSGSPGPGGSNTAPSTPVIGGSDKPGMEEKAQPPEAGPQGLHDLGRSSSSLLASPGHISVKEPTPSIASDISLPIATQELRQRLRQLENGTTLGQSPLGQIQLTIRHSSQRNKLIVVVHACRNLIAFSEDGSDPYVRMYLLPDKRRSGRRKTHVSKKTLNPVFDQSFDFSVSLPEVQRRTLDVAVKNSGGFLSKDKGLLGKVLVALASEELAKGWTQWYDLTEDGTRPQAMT

[6] = target: T7, leucine rich repeat containing 28, transcript variant 1 (human, UniProt Q86X40 1-367)
T7 construct: on protein array; also called LRRC28
T7 sequence (Q86X40 whole entry, change not shown): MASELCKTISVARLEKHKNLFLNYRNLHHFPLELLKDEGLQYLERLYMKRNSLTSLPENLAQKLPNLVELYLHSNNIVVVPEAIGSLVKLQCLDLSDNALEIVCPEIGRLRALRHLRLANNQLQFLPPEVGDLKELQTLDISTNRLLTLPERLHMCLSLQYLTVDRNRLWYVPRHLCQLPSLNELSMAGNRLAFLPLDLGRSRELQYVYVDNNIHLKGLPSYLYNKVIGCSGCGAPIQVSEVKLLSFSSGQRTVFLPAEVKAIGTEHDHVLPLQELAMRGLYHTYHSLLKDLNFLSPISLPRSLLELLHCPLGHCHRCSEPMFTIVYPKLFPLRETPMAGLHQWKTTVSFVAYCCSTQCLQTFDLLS

binding result [1]: binds
B1: TCOL1009 (antibody, V domains shown)
VH: PVQLVQSGAEVKKPGASVKVSCKASGDTFPNYVISWVRQAPGQGLEWVGCINTNNGKTNYVQKLQGRVILTTDTSTNTANMELRSLRFDDTAVYYCARERGQVRSYGMDVWGQGTAVTVSS
VL: PYELTQPPSVSVSPGQTANITCSGDKLGDICVCWYQQKPGQSPVLVIYQHNKRPSGIPERFSGSNSGNTATLTISATQATDEAIYYCQSWDSSSVLFGGGTKLTVLG
notes: VH/VL only

binding result [2]: binds
binding result [3]: binds
B2: TCOL1006 (antibody, V domains shown)
VH: EVQLVESGGGLVQPGGSLRLSCAASGFPPRSFAMSWVRQAPGKGLEWVSSISGLGNSIYYAESVKGRFITSRDNSKSTVFLLMNSLRAEDTAVYYCAKSAFGGVPDGFDIWGQGTMVTVSS
VL: QSVVTQPPSASGPPGQTVTISCSGGRSNVASHAVHWYQHLPGTAPKLLIYNDHQRPSGVPDRFSGSKSGPSASLAISGLRSEDEADYYCATWDDSLGGRVVFGGGTKLTVLG
notes: VH/VL only

binding result [4]: binds
B3: TCHO1001 (antibody, V domains shown)
VH: PVHLVQSGAEVKKPGSSVKVSCKLSGGIFSYFAIIWVRQAPGQGLEWMGTIIPIFGTSNYAEKFQDRVAIVADEATSTVYMEVNSLRSEDTAIYFCARDSEVEKSDGYMASTAEYFQLWGQGTLVTVSS
VL: not shown
notes: VH/VL only

binding result [5]: binds
B4: TCER1006 (antibody, V domains shown)
VH: EVQLVQSGAEVKKPGESLKISCKGSGYSFTSFWIGWVRQMPGKGLEWMGIIFPADSDTRYSPSFQGQVIISVDKSISTAYLQWSSLKASDTAMYYCARRGVSGGSAWTYYNFFDPWGQGTLVTVAS
VL: PSVLTQPPSVSAAPGQKVTISCSGSSSNIDNNYVSWYQQLPGTAPKLLIYENNKRASGIPDRFSGSKSGTSATLGITGLQTGDEADYYCGTWDSSLSPGGVFGGGTKLTVLG
notes: VH/VL only

binding result (extended synaptotagmin 2): binds
B5: TCOL1004 (antibody, V domains shown)
VH: QVQLQESGPGLVKPSQTLSLTCIVSGGSISGDKNFWSWVRQHPEKGLEWLGYISYNGNTYYNPSLISRIIISLDTPKNLFSLRLSSVTVADTAIYYCAREVDIRGDSDAFDIWGRGTVVTVSS
VL: EIVMTQSPATLSVSPGERATLSCRASQSVSTNLAWYQQRPGQAPRLFIFGASTRATGIPARFSGSGSGTEFTLTISSPQPEDSAVYYCQQYTTRPLTFGGGTKVEIKR
notes: VH/VL only

binding result [6]: binds
B6: TESO1003 (antibody, V domains shown)
VH: QVQLVESGGGVVQPGRSLRLSCAASGFTFSNYDMHWVRQAPGKGLEWVTVVSYDGTNKYYAESVQGRFTISRDNSKNTLYLQMNSLRTEDTAVYYCAKEGGWGNTVTTSYYYYGMDVWGQGTTVTVSS
VL: QIVLTQSPATLSLSPGERATLSCRASQSVSNYLAWYQQKPGQAPRLLIYDASNRATGIPARFSGSGSGTDFTLTISSLEPEDFAVYYCQQRSNWPPYTFGQGTKLDIKR
notes: VH/VL only
